Laboratory results: publication PMC3476531, “Synergy of Peptide and Sugar in O-GlcNAcase Substrate Recognition” (Chemistry & Biology, 2012)
*: point of attachment. βGlcNAc = CC(=O)N[C@@H]1[C@@H](O)[C@H](O)[C@@H](CO)O[C@H]1*

T1: hOGA (Homo sapiens, UniProt O60502)
T1 sequence (O60502 1-916): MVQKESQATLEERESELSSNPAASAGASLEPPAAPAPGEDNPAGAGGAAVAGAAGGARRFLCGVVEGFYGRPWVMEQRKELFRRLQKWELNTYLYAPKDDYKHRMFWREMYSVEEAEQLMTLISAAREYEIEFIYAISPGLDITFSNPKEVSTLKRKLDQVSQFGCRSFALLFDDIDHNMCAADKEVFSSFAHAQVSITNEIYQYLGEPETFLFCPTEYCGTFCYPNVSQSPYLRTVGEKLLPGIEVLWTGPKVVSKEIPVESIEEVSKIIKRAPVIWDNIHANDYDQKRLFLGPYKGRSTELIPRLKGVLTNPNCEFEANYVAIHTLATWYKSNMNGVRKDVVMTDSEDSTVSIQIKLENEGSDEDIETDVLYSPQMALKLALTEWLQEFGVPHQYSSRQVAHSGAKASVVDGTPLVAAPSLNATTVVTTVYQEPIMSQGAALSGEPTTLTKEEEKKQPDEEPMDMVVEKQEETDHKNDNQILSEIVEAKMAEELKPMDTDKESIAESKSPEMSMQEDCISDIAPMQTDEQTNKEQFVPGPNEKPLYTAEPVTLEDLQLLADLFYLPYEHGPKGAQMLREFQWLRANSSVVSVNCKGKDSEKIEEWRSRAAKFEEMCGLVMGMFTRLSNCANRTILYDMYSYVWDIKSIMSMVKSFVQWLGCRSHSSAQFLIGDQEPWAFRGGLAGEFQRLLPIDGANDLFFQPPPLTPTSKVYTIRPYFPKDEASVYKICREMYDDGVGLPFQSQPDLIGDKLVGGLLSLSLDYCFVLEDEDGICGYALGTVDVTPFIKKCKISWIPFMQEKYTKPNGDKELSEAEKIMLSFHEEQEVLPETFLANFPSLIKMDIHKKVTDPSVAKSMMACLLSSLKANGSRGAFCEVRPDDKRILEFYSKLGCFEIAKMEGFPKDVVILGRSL

T2: human O-GlcNAcase (hOGA) Y69F (human) (UniProt O60502)
T2 sequence: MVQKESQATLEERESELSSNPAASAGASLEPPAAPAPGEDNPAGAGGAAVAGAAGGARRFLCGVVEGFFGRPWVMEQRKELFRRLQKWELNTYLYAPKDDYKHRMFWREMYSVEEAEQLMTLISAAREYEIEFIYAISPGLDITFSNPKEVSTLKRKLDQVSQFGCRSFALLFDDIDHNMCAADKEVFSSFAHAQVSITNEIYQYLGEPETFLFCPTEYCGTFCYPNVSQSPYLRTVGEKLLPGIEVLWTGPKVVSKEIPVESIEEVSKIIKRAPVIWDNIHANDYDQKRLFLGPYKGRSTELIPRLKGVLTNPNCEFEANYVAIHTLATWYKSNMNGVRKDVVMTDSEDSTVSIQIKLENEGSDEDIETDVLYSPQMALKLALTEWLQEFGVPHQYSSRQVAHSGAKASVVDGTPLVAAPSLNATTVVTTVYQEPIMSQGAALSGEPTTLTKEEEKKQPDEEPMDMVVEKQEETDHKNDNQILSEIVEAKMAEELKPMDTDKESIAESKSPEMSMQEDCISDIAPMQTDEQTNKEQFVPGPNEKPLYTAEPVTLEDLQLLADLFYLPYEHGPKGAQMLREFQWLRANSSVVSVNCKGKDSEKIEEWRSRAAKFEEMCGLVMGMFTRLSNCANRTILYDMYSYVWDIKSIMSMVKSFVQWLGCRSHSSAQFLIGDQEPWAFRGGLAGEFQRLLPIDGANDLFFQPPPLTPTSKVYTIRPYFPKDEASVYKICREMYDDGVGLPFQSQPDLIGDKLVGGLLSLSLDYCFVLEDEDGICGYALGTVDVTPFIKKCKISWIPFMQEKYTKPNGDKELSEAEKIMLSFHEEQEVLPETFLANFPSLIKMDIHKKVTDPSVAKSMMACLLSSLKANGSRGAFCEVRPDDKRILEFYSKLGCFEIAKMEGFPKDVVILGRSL

T3: human O-GlcNAcase (hOGA), wild-type (human) (UniProt O60502)
T3 sequence: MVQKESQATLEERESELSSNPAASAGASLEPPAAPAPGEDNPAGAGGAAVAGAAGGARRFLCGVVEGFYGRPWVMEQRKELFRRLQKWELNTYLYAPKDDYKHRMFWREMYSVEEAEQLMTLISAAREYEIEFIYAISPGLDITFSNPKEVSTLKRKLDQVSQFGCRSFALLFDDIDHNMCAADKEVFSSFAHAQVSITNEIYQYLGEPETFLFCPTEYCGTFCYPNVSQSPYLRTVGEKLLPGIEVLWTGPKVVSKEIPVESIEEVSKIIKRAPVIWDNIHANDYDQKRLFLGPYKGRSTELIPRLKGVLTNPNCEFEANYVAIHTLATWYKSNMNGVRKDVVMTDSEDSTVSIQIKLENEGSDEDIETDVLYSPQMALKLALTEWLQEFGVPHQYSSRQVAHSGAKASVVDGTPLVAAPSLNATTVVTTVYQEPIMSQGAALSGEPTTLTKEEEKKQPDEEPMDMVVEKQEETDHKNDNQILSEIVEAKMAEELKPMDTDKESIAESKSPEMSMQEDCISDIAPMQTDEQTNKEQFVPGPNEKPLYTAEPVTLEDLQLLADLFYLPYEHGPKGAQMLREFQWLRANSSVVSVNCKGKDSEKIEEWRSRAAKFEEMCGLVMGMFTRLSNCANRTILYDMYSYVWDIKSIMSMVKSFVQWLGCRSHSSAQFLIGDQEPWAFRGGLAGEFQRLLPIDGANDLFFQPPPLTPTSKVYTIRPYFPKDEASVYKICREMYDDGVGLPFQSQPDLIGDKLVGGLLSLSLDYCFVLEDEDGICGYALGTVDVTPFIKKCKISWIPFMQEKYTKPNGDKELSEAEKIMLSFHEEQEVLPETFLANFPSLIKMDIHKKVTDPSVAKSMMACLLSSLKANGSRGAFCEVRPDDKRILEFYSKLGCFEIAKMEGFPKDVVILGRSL


How the values were obtained:
hOGA = target: T1, hOGA; set-up: GST (N); made in house; conditions: wild-type hOGA; substrate competition assay with 4MU-GlcNAc; value reproduced from earlier paper; ref Schimpl et al., 2010; read-out: Michaelis constant (KM) of glycopeptide substrate for hOGA; cited from earlier work
Description: Table 1 Hydrophobic Stacking Interactions of Tyr69 Are Essential for Substrate Binding by hOGA | column: hOGA Peptide / VAHS(O-GlcNAc)GAK || Table 2 Intramolecular Hydrogen Bonds Stabilize the Substrate Conformation and Reduce the Km for hOGA | column: TAB1 Peptide (Ser395) || Figure 1 OGA Binds Different O-GlcNAc Glycopeptides with Similar Conformation but Different Affinities (A) Origin and sequence of O-GlcNAc peptides. The sequence of the longest peptides used is given, with residues observed in the crystal structure highlighted by colored boxes, and the shorter peptides indicated by brackets.

[1] = target: T2, human O-GlcNAcase (hOGA) Y69F (human)
[2] = target: T3, human O-GlcNAcase (hOGA), wild-type (human)

| Molecule | Km (hOGA) [µM] | KM of the glycopeptide substrate (substrate competition assay with 4MU-GlcNAc as reporter substrate) [1] [µM] | KM of the glycopeptide substrate (substrate competition assay with 4MU-GlcNAc as reporter substrate) [2] [µM] |
| --- | --- | --- | --- |
| VAHS(O-GlcNAc)GAK [hOGA (Ser405) 7, 7-residue O-GlcNAc glycopeptide derived from hOGA Ser405 site] | 790 ± 40 |  |  |
| Ac-PVSVPYS(βGlcNAc)SAQSTS-NH2 (SMILES CC(=O)N[C@H]1[C@H](OC[C@H](NC(=O)[C@H](Cc2ccc(O)cc2)NC(=O)[C@@H]2CCCN2C(=O)[C@@H](NC(=O)[C@H](CO)NC(=O)[C@@H](NC(=O)[C@@H]2CCCN2C(C)=O)C(C)C)C(C)C)C(=O)N[C@@H](CO)C(=O)N[C@@H](C)C(=O)N[C@@H](CCC(N)=O)C(=O)N[C@@H](CO)C(=O)N[C@H](C(=O)N[C@@H](CO)C(N)=O)[C@@H](C)O)O[C@H](CO)[C@@H](O)[C@@H]1O) [TAB1 peptide PVSVPYS(O-GlcNAc)SAQSTS] |  | 1100 | 940 |
